Tested on: FLAG-cGAS (Homo sapiens)
Assay: pull-down (streptavidin, Western blot; ligand transfected into HEK293T 2 h)
Settings: 5' or 3' position of biotin not stated, forward strand biotinylated, reverse unmodified, HEK293T transfected with 4 ug/mL biotin-ISD45 for 2 h, then streptavidin IP, IP buffer, pH and temperature not in the material (oligo annealing: 5 mM Tris pH 7.)

In the case of biotinylated ISD45, the binding signal (fold of empty vector) (WT SRC-HA coexpressed) is reported as 0.466 and the binding signal (fold of empty vector) (empty vector, no SRC-HA, non-biotinylated ISD45 background 0.1436) is reported as 1.

Source: PMC10371251
